# Reference: patent US20190092852A1 (Genentech, published 2019)
# Values joined by “and” are separate entries in the source; they are usually repeats but may differ in a detail not shown here. Equal values may be shown once.
# T1: biotinylated cyno IL-33 (cynomolgus monkey, UniProt A0A2K5W3I1 112-269, biotin-labeled with EZ-LINK NHS-PEG4-Biotin)
# T1 construct: also called biotin-cyIL-33
# T1 sequence: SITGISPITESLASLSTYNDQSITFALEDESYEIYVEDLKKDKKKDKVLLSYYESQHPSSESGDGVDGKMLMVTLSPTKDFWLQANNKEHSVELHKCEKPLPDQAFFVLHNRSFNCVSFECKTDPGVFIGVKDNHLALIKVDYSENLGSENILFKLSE
# T2: cyno IL-33 N-His (cynomolgus monkey)
# T2 chain: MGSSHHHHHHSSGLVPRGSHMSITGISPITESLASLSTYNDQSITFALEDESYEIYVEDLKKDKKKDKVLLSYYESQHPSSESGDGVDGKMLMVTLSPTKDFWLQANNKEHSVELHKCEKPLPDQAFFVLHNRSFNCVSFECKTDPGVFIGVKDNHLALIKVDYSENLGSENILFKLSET
# T3: human IL-33 (Genentech, huIL33.his) (human, UniProt O95760 112-270)
# T3 sequence (looked up): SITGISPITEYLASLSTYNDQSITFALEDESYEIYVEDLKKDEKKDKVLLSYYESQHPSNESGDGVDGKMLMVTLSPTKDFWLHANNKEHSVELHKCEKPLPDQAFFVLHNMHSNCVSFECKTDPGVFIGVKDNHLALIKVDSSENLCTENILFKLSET
# T4: human IL-33 (cell-based blocking assay of Example 2) (human, UniProt O95760 112-270)
# T4 sequence (looked up): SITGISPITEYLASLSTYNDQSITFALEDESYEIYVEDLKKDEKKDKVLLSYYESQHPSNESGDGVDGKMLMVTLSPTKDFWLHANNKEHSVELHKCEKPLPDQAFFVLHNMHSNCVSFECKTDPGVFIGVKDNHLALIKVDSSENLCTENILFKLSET
# T5: cyno IL-33 (cell-based blocking assay of Example 2) (cynomolgus monkey, UniProt A0A2K5W3I1 95-269)
# T5 sequence: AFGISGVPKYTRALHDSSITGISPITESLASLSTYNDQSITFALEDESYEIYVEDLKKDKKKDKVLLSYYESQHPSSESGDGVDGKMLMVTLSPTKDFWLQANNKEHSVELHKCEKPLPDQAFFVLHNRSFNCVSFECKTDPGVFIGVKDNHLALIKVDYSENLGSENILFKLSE
# How the values were obtained:
# biotinylated cyno IL-33 = molecular target: T1, biotinylated cyno IL-33; assay: competitive ELISA, biotin-cyIL-33 to coated hST2-Fc
# Protocol: The ability of the anti-IL-33 antibody 10C12.38.H6.87Y.58I IgG4 and each anti-IL-33 antibody listed in Table 5 (RG1-RG20) to block either human IL-33 or cyno IL-33 binding to human ST2 receptor was tested in a competitive binding ELISA. Briefly, 1 μg/ml of recombinant human ST2-Fc chimera protein prepared in coating buffer (50 mM sodium carbonate, pH 9.6) was coated on a 384-well MAXISORP® plate (Nalgene Nunc International; Rochester, N.Y.) and incubated overnight at 4° C. On the next day, non-specific binding was blocked with PBS containing 0.5% (w/v) solution of bovine serum albumin (BSA). Fixed concentrations of biotinylated human or cyno IL-33 prepared in assay buffer (25 mM PBS, pH 7.2, 0.1% BSA, 0.05% TWEEN®-20) were mixed with an equal volume of serially-diluted anti-IL-33 antibodies or assay buffer alone and incubated for 1 h at room temperature. The final assay concentrations of biotinylated human IL-33 or cyno IL-33 were 20 pM and 45 pM, respectively, and the final assay concentration of each antibody ranged from 0-300 nM. The pre-mixed solutions were added to the ST2-Fc coated plate and incubated for 1 h at room temperature. The binding of biotinylated IL-33 to coated ST2-Fc was detected by the sequential addition of Streptavidin Poly-HRP80 (Fitzgerald; Buckinghamshire, UK) and 3,3′,5,5′-tetramethyl benzidine (TMB) Microwell Peroxidase Substrate System (KPL; Gaithersburg, Md.). The absorbance (450 nm) was recorded using a […] ASCENT® plate reader (Thermo Scientific; Rockford, Ill.). The binding activity (%) of biotin-IL-33 to ST2 in the presence of anti-IL-33 was plotted as a function of antibody concentration. The data generated were fitted to a four-parameter equation to determine IC₅₀ values for each antibody (FIGS. 25A and 25B) using Prism software (Graphpad Software; La Jolla, Calif.). The maximum blocking (%) of each antibody was calculated as the ratio of the reduction in signal measured in the presence of antibody relative to the difference between the signal with IL-33 alone and background measurements.
# cyno IL-33 N-His [1] = molecular target: T2, cyno IL-33 N-His; assay: SPR Biacore T200, 25 C
# Protocol: (§1) The binding kinetics of the anti-IL-33 antibody 10C12.38.H6.87Y.58I IgG4 and each anti-IL-33 antibody listed in Table 5 (RG1-RG20) to IL-33 were measured using surface plasmon resonance (SPR) on a BIACORE® T200 instrument (GE Healthcare). Anti-human Fc or anti-murine Fc (GE Healthcare, #BR-1008-39 or BR-1008-38, respectively) was immobilized on a CM5 sensor chip via amine-based coupling according to the manufacturer's protocol. Surfaces were used to capture monoclonal human IgG4 and monoclonal murine IgGs for kinetic studies. Antibody binding was measured to human IL-33 (R&D systems, #3625-IL-010/CF) and cyno IL-33 N-His (SEQ ID NO: 317) (Genentech, Inc.). A three-fold concentration series of cytokine with a range of 3.7 to 100 nM was used for the experiments. Sensograms for binding of IL-33 were recorded using an injection time of 4 min with a flow rate of 30 μl/minute with a running buffer of 0.01 M N-(2-Acetamido)iminodiacetic acid (ADA) pH 7.4, 0.15 M NaCl, 3 mM EDTA, and 0.05% TWEEN®-20. After injection, disassociation of the ligand from the antibody was monitored for 10 min in running buffer. The surface was regenerated in between cycles with an injection of 3 M magnesium chloride or Glycine-HCl pH 1.7. All binding experiments were performed at a temperature of 25′C and 37° C. After subtraction of a blank which contained running buffer only, sensograms observed for IL-33 binding to anti-IL-33 antibodies were analyzed using a 1:1 Langmuir binding model with software supplied by the manufacturer to calculate the kinetics and binding constants, including the dissociation constant (KD). Dissociative half-lives (t_{1/2}) were calculated from the kinetic rate constants. KD (M)=koff/kₒₙ and t_{1/2} (min)=ln(2)/(60*koff). […] In Tables 6-9, *IC indicates the result is inconclusive due to weak capture of antibody was observed, leading to poor binding data.
# cyno IL-33 N-His [2] = molecular target: T2, cyno IL-33 N-His; assay: SPR Biacore T200, 37 C
# Protocol: as §1
# [3] = molecular target: T3, human IL-33 (Genentech, huIL33.his); assay: SPR Biacore
# [4] = molecular target: T4, human IL-33 (cell-based blocking assay …); assay: cell-based or functional assay
# [5] = molecular target: T5, cyno IL-33 (cell-based blocking assay …); assay: cell-based or functional assay
IC50 (biotinylated cyno IL-33),Maximum Blocking (biotinylated cyno IL-33),Kd (cyno IL-33 N-His [1]),koff (cyno IL-33 N-His [1]),kon (cyno IL-33 N-His [1]),t1/2 (cyno IL-33 N-His [1]),Kd (cyno IL-33 N-His [2]),koff (cyno IL-33 N-His [2]),kon (cyno IL-33 N-His [2]),t1/2 (cyno IL-33 N-His [2]),Kd [3],Cell assay (hu) IC90 [4],Cell assay (cy) IC90 [5],Binder
150 nM,27%,2.63 nM,0.000557 s⁻¹,212000 M⁻¹ s⁻¹,21 min,5.82 nM,0.00221 s⁻¹,380000 M⁻¹ s⁻¹,5 min,–,–,–,"H4H9670P (antibody, V domains shown) VH: EVQLVESGGGLVQPGGSLRLSCAASGFTLSSYAMSWVRQAPGKGLEWVSAISGSGGSTYYADSVKGRFTISRDNSKNSLYLQLNSLRAEDTAVYYCAKTLYTTSWYGGFQHWGQGTLVTVSS VL: DIQMTQSPSSVSASIGDRVTITCRASQGISSWLAWYQQKPGKVPKLLIYAASSLQSGFPSRFSGSGSGTDFTLTISSLQPEDFATYYCQQTHSFPWTVGQGTKVEIK"
–,10%,5.62 nM,0.000556 s⁻¹,99000 M⁻¹ s⁻¹,21 min,10.4 nM,0.00213 s⁻¹,205000 M⁻¹ s⁻¹,5 min,–,–,–,"H4H9664P (antibody, V domains shown) VH: QVQLVESGGGVVQPGRSLRLSCAASGFTFSSYGLHWVRQSPGKGLEWVALISYDGSNKYYADSVKGRFTISRDNSKNTLYLQMNSLRPEDTAGYFCAKSLYTTSWYGGFDYWGQGTLVTVSS VL: DIQMTQSPSSVSASVGDRVTITCRASQGIRSWLAWYQQKPGKAPNLLIYAASSLQSGVPSRFSGSGSGTDFTLTISSLQPEDFATYYCQQANSFPPTFGPGTKVDIK"
–,–,38 nM,0.00625 s⁻¹,164000 M⁻¹ s⁻¹,2 min,47.4 nM,0.0139 s⁻¹,293000 M⁻¹ s⁻¹,1 min,–,–,–,"H4H9666P (antibody, V domains shown) VH: QVQLVQSGAEVKKPGASVKVSCKASGYTFTSYGISWVRQAPGQGLEWMGWIRAYNGYTNYAQKFQGRVTMTTDTSTNTAYMELRTLNSDDTAVYYCARDRYSGSFHGNFDYWGQGTLVTVSS VL: DIQMTQSPSSVSASVGDRVTITCRASQGIFSWLAWYQQKPGKAPKVLIYAASNLESGVPSRFSGSGSGTDFTLTISSLQPEDFATYYCQQANSLPLTFGGGTKVEIK"
–,–,3.15 nM,0.00248 s⁻¹,787000 M⁻¹ s⁻¹,5 min,6.93 nM,0.0111 s⁻¹,1.6e+06 M⁻¹ s⁻¹,1 min,–,–,–,"H4H9676P (antibody, V domains shown) VH: EVQLVESGGGLVQPGGSLRLSCSASGFTFSSYAMNWVRQAPGKGLEWVTAISGSGGGTYYADSVKGRFTISRDNSKNSLFLQLNSLRAEDTAVYYCAKQTYTSSWYGGFDIWGQGTMVTVSS VL: DIQMTQSPSSVSASVGDRVTITCRASQGFSSWLAWYQQIPGKAPKLLIYAASRLQSGVPSRFRGSGSGTDFTLTISSLQPEDFATYYCQQANSFPLTFGGGTKVEIK"
–,7%,2.83 nM,0.00059 s⁻¹,208000 M⁻¹ s⁻¹,20 min,5.38 nM,0.00214 s⁻¹,398000 M⁻¹ s⁻¹,5 min,–,–,–,"H4H9667P (antibody, V domains shown) VH: EVQLVESGGGLVQPGGSLRLSCAASGFTFSTYSMHWVRQAPGKGLEYVSTINNNGDTTYYADSVKGRFTISRDNSKNTLYLQLGSLRPEDMAVYYCARQTYTSSWYGGFDSWGQGTLVTVSS VL: DIQMTQSPSSVSASVGDRVTITCRASQGITSWLAWYQQKPGKAPKLLIYAASNLQSGVPSRFSGSGSGTDFTLTITSLQPEDFATYYCQQANSLPFTFGPGTKVDIK"
–,–,–,–,–,–,–,–,–,–,336 nM,–,–,"2B6.54S (antibody, V domains shown, Humanized variant of 2B6) VH: EVQLVQSGAEVKKPGASVKVSCKASGYTFSDYNMNWVRQAPGQGLESIGDINPKSGDTFYNQNFKDRATLTIDKSTSTAYLELSSLRSEDTAVYYCARHYYYGSSYGGFVYWGQGTLVTVSS VL: DIQMTQSPSSLSASVGDRVTITCHASQNINVWLSWYQQKPGKNPKLLIYAASKLHTGVPSRFSGSGSGTDFTLTISSLQPEDFATYYCQQGQSYPLTFGQGTKVEIK"
–,–,–,–,–,–,–,–,–,–,0.363 nM,–,–,"2B6.55A (NA) (antibody, V domains shown, Humanized variant of 2B6) VH: EVQLVQSGAEVKKPGASVKVSCKASGYTFSDYNMNWVRQAPGQGLESIGDINPKNADTFYNQNFKDRATLTIDKSTSTAYLELSSLRSEDTAVYYCARHYYYGSSYGGFVYWGQGTLVTVSS VL: DIQMTQSPSSLSASVGDRVTITCHASQNINVWLSWYQQKPGKNPKLLIYAASKLHTGVPSRFSGSGSGTDFTLTISSLQPEDFATYYCQQGQSYPLTFGQGTKVEIK"
–,–,–,–,–,–,–,–,–,–,0.22 nM,0.344 µg/mL and 2.27 nM,> 1.5 µg/mL and > 9.9 nM,"10H2.36.F10.30V.54D (antibody, V domains shown, Humanized variant of 10H2) VH: EVQLVESGGGLVQPGGSLRLSCAASGFTFSNYWMNWVRQAPGKGLEWMAEITLKFNDYSTHYAESVKGRFTISRDNSKNTVYLQMNSLRAEDTAVYYCARRNYGNWYINVWGQGTLVTVSS VL: DIVMTQSPDSLAVSLGERATINCRASESVDKFGVSFLNWYQQKPGQPPKLLIFVASSQGSGVPDRFSGSGSGTDFTLTISSLQAEDVAVYYCQQSKDIPYTFGQGTKVEIK"
–,–,5.74 nM,0.0019 s⁻¹,331000 M⁻¹ s⁻¹,6 min,13 nM,0.00757 s⁻¹,584000 M⁻¹ s⁻¹,2 min,–,–,–,"H4H9672P (antibody, V domains shown) VH: EVQLVESGGGLVQPGGSLRLSCAASGFTLRSYVMYWVRQGPGKGLEGVSGISGSSGGTYYTDSVKGRFTISRDNSKNTLFLQMNSLRAEDTAVYFCARSVYSTTWYGGFQHWGQGTLVTVSS VL: DIQMTQSPSSVSVSVGDRVTITCRASQVISSWLAWYQLKPGKAPKLLIYAASSLQSGVPSRFSGSGSGTDFTLTISGLQPEDFAVYYCQQTNSFPLTFGGGTKVEIK"
